Earlier results, collected in article PMC8070608.
Read-outs that look alike come from different tables or passages of the source.

Columns and labels:
[1] = target: plasminogen (Homo sapiens) (UniProt P00747)
tPA (Homo sapiens) [2] = target: tPA (Homo sapiens) (UniProt P00750)
tPA (Homo sapiens) [3] = target: tPA (Homo sapiens) (UniProt P00750); remark: listed apart in the source

Chain of UniProt P00750 (P00750 36-562): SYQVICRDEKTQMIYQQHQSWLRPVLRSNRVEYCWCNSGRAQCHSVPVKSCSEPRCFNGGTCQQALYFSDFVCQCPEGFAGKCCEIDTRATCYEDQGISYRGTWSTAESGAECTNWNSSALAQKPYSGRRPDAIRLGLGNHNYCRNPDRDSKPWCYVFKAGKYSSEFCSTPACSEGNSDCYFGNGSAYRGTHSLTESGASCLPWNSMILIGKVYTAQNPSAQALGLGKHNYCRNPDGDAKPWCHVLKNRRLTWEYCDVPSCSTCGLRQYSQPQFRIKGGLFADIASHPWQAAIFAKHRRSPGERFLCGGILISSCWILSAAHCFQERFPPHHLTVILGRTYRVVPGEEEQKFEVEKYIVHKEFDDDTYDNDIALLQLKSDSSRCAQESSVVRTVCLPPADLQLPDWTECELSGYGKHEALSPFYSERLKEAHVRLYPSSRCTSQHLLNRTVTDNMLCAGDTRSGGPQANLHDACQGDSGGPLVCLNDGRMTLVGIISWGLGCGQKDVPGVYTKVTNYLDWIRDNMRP
Chain of UniProt P00747 (P00747 20-810): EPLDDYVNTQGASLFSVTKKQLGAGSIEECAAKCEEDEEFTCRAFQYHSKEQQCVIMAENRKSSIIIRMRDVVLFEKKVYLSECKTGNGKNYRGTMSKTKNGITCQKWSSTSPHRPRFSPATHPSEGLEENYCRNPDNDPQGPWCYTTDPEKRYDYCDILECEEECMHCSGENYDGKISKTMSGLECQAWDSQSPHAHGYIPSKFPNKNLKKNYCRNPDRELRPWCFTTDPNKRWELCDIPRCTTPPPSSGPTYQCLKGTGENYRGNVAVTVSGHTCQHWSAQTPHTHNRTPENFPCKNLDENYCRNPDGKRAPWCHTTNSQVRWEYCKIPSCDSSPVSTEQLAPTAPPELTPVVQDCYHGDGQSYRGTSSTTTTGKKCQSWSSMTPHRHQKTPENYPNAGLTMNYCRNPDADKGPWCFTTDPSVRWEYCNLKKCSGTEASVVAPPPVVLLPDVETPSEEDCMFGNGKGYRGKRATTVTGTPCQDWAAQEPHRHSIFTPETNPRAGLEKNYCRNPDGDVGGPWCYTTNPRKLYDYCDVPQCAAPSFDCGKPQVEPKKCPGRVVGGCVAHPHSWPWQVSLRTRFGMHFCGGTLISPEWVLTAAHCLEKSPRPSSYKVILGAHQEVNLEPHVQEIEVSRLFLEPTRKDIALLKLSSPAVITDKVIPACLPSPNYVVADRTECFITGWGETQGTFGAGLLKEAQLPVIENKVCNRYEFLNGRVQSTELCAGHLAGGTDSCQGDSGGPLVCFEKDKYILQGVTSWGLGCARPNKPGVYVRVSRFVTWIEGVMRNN

Row | Substance | Kd [1] [nM] | Kd (tPA (Homo sapiens) [2]) [nM] | Kd (tPA (Homo sapiens) [3]) [nM]
1 | p11 (from UniProt P60903) | 110 | 680 | –
2 | p36 (annexin A2) (from UniProt P07355) | – | – | 48
